Data on five molecules can be found in article PMC6804253, “Predicting and Experimentally Validating Hot-Spot Residues at Protein–Protein Interfaces” (ACS Chemical Biology, 2019).

Assay [1] deals with PPIs of the SKEMPI data set (by PDBID). Kind of assay: SKEMPI experimental ΔΔG, single mutations to alanine. It is filed as binding. To be noted: for sk_class (class of the SKEMPI experimental ΔΔG): ref SKEMPI.
The test system is the same in assay [2]. To be noted: ref SKEMPI, cited from earlier work; for sk_ddG_kJ (SKEMPI experimental ΔΔG of binding, mutation to alanine): single mutation to alanine in the complex of the given PDBID.
[3] abbreviates: Positive / Neutral / Negative by ΔΔG threshold 4.184 kJ/mol.

B1: 1A4Y WA261A (protein, UniProt P13489 2-461, looked up, variant W261A)
Ribonuclease inhibitor: SLDIQSLDIQCEELSDARWAELLPLLQQCQVVRLDDCGLTEARCKDISSALRVNPALAELNLRSNELGDVGVHCVLQGLQTPSCKIQKLSLQNCCLTGAGCGVLSSTLRTLPTLQELHLSDNLLGDAGLQLLCEGLLDPQCRLEKLQLEYCSLSAASCEPLASVLRAKPDFKELTVSNNDINEAGVRVLCQGLKDSPCQLEALKLESCGVTSDNCRDLCGIVASKASLRELALGSNKLGDVGMAELCPGLLHPSSRLRTLAIWECGITAKGCGDLCRVLRAKESLKELSLAGNELGDEGARLLCETLLEPGCQLESLWVKSCSFTAACCSHFSSVLAQNRFLLELQISNNRLEDAGVRELCQGLGQPGSVLRVLWLADCDVSDSSCSSLAATLLANHSLRELDLSNNCLGDAGILQLVESVRQPGCLLEQLVLYDIYWSEEMEDRLQALEKDKPSLRVIS
As to B1, the sk_class result in assay [1] (class of the SKEMPI experimental ΔΔG) is recorded as “Neutral (neutral (little effect) 4.184 kJ/mol < ΔΔG > −4.184 kJ/mol)”. Moreover, the “sk_ddG_kJ (SKEMPI experimental ΔΔG)” value in assay [2] (single mutation to alanine, sheet sortedByGroup, r_group FAMILYVW) is 0.38 kJ.

B2: 2PCC DA34A (protein, UniProt P00431 68-361, looked up, variant D34A)
Cytochrome c peroxidase, …: TTPLVHVASVEKGRSYEDFQKVYNAIALKLREDAEYDNYIGYGPVLVRLAWHTSGTWDKHDNTGGSYGGTYRFKKEFNDPSNAGLQNGFKFLEPIHKEFPWISSGDLFSLGGVTAVQEMQGPKIPWRCGRVDTPEDTTPDNGRLPDADKDADYVRTFFQRLNMNDREVVALMGAHALGKTHLKNSGYEGPWGAANNVFTNEFYLNLLNEDWKLEKNDANNEQWDSKSGYMMLPTDYSLIQDPKYLSIVKEYANDQDKFFKDFSKAFEKLLENGITFPKDAPSPFIFKTLEEQGL
With B2, in assay [1] (setting [3]), the “sk_class (class of the SKEMPI experimental ΔΔG)” value is on record as “Neutral (neutral (little effect) 4.184 kJ/mol < ΔΔG > −4.184 kJ/mol)”. The “sk_ddG_kJ (SKEMPI experimental ΔΔG of binding, mutation to alanine)” value in assay [2] was -3.81 kJ.

B3: 2PCC EA290A (protein, UniProt P00431 68-361, looked up, variant E290A)
Cytochrome c peroxidase, …: TTPLVHVASVEKGRSYEDFQKVYNAIALKLREDDEYDNYIGYGPVLVRLAWHTSGTWDKHDNTGGSYGGTYRFKKEFNDPSNAGLQNGFKFLEPIHKEFPWISSGDLFSLGGVTAVQEMQGPKIPWRCGRVDTPEDTTPDNGRLPDADKDADYVRTFFQRLNMNDREVVALMGAHALGKTHLKNSGYEGPWGAANNVFTNEFYLNLLNEDWKLEKNDANNEQWDSKSGYMMLPTDYSLIQDPKYLSIVKEYANDQDKFFKDFSKAFEKLLENGITFPKDAPSPFIFKTLAEQGL
With B3, the “sk_class (class of the SKEMPI experimental ΔΔG)” value in assay [1] (setting [3]) is recorded as “Positive (positive (a hot residue) ΔΔG ≥ 4.184 kJ/mol)”. In addition, the “sk_ddG_kJ (SKEMPI experimental ΔΔG of binding, mutation to alanine)” value in assay [2] is listed as 25.90 kJ.

B4: 1A22 IB305A (protein, UniProt P10912 19-264, looked up, variant I105A)
extracellular domain: FSGSEATAAILSRAPWSLQSVNPGLKTNSSKEPKFTKCRSPERETFSCHWTDEVHHGTKNLGPIQLFYTRRNTQEWTQEWKECPDYVSAGENSCYFNSSFTSIWAPYCIKLTSNGGTVDEKCFSVDEIVQPDPPIALNWTLLNVSLTGIHADIQVRWEAPRNADIQKGWMVLEYELQYKEVNETKWKMMDPILTTSVPVYSLKVDKEYEVRVRSKQRNSGNYGEFSEVLYVTLPQMSQFTCEEDFY
modifications: extracellular domain
As for B4, in assay [1] (setting [3]), the “sk_class (class of the SKEMPI experimental ΔΔG)” value was “Neutral (neutral (little effect) 4.184 kJ/mol < ΔΔG > −4.184 kJ/mol)”. Also, the “sk_ddG_kJ (SKEMPI experimental ΔΔG of binding, mutation to alanine)” value in assay [2] is listed as 0.54 kJ.

B5: 1A22 EB291A (protein, UniProt P10912 19-264, looked up, variant E91A)
extracellular domain: FSGSEATAAILSRAPWSLQSVNPGLKTNSSKEPKFTKCRSPERETFSCHWTDEVHHGTKNLGPIQLFYTRRNTQEWTQEWKECPDYVSAGANSCYFNSSFTSIWIPYCIKLTSNGGTVDEKCFSVDEIVQPDPPIALNWTLLNVSLTGIHADIQVRWEAPRNADIQKGWMVLEYELQYKEVNETKWKMMDPILTTSVPVYSLKVDKEYEVRVRSKQRNSGNYGEFSEVLYVTLPQMSQFTCEEDFY
modifications: extracellular domain
Turning to B5, the “sk_class (class of the SKEMPI experimental ΔΔG)” value in assay [1] (class by ΔΔG threshold 4.184 kJ/mol) is “Neutral (neutral (little effect) 4.184 kJ/mol < ΔΔG > −4.184 kJ/mol)”. Also, the “sk_ddG_kJ (SKEMPI experimental ΔΔG, mutation to alanine)” value in assay [2] (single mutation to alanine, PPI given by PDBID, sheet sortedByGroup, r_group DERKH) was 0.75 kJ.
